# Data reported in publication PMC6380602, “The polymeric immunoglobulin receptor-like protein from Marsupenaeus japonicus is a receptor for white spot syndrome virus infection” (PLoS Pathogens, 2019).
# B1: native MjpIgR (Marsupenaeus japonicus polymeric immunoglobulin receptor-like protein) (receptor, UniProt A0A3S8D7Y1 1-562, looked up)
# chain: QEYSVDEPNNRDVVFNGVQSSDVSLIFDDADIIVNPGERLDLNCGFQGQYRHCIWELEGAKPIQVQDVYDDVHPGMSRPEVSEGNECGIVINSVSTEQHGKWTCRVFITGNSLEGSKKVIVTVKPTYPILEVDNSQLLEVTSDAETPVKCVVAAARPAVGIRWFLGDKDVTVMAETEETPTDNEGMYKSISTLRRTFEPMENGMMLVCSVSHKTLTVPENASIPLNVVFKPVEKPVSTYYQIRPGSDYEVKLNFSANPPPTRKEWRYGDTFQNIAVSIEIPGAKDRYETYIEELGNGMYTATLRIAGFKEEDANQRYMLVVQNDLGETSYKVRLSMDDAPKDGDSETRDHDKNPSTEYSVSEGIVFDDDTMSNTLSGGAVAGIVIVVLIIVTAVAAAGYARYRQMFCFAPVVTPDPEEGKETKEEHSDTESARGANTTRAANLKNSLGRLTQVFKKPKKEQETKLENIGDDEKRSLTTEDPKKGSPIKEQNVDDKEVVYAELDLGKSESDKKTEVKAEDKTEYAQIVGTVTDNREDEKKE
# notes: also called pIgR-like protein; source: endogenous, hemocytes of M. japonicus 30 min after WSSV injection
# Biological target: the molecule itself
# Experiment: cross-linking; BS3 (5 mM, 2 h, room temperature) on hemocytes of shrimp 30 min after WSSV injection, SDS-PAGE, western blotting with anti-MjpIgR antibodies; oligomer size by molecular mass
protein,measurement,value
B1,stoichiometry N,4
